The source of these data is article PMC9352680, “A comprehensive thermodynamic model for RNA binding by the Saccharomyces cerevisiae Pumilio protein PUF4”.

Changes are numbered by the printed parent chain. Numbers in names are those of the source.

For this series, the target named is T1, PUF4 RNA-binding domain (Saccharomyces cerevisiae, UniProt P25339 537-888).
T1 sequence: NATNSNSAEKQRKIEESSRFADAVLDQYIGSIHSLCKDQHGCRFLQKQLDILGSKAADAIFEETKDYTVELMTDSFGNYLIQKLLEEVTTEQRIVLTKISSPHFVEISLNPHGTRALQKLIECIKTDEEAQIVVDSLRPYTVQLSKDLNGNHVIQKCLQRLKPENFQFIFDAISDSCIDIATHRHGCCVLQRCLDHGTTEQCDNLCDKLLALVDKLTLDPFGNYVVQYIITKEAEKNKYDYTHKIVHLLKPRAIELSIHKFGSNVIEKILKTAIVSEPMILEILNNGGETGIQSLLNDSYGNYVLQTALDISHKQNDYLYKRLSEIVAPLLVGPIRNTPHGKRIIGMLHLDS
In words: Mg; RNA-MaP; 20 mM Na-HEPES pH 7.4, 30 mM KOAc, 0.75 mM MgCl2, 0.1% Tween-20, 5% glycerol, 0.1 mg/mL BSA, 2 mM DTT; 25 C; 0.0125-409.6 nM protein. The settings on record: tags: N-His6-TEV cleaved; C-SNAP kept, Cy3B-labelled; label: tethered on chip by stalled RNA polymerase.

B1: Ic_S2_P5E.1_K5.1_C5.1_H5.1_A5.1_[T5C]_[T6A]_F5.1_[A10C]_T5.1 (ssRNA)
RNA: UUUGAUUAAUAUGAUAUCGUUCUUUCUUGUACAAUUCUUCUUUCUCGAUAUCAUAUUAAUCUUU
As for B1, the dissociation constant (Kd) – broadly, the concentration at which binding is half-saturated – is 6.33 nM.

B2: Ic_S2_P5E.1_K5.1_C5.1_H5.1_A5.1_[T5A]_[A7T]_F5.1_[T9A]_[A10G]_T5.1 (ssRNA)
RNA: B1 RNA with C32A, A33U, A34U, U36A, C37G
As for B2, the equilibrium dissociation constant (Kd) came out at 5.21 nM.

B3: Ic_S2_P5E.1_K5.1_C5.1_H5.1_A5.1_[T5G]_[A7T]_F5.1_[T8C]_[T9C]_[A10T]_T5.1 (ssRNA)
RNA: B1 RNA with C32G, A33U, A34U, U35C, U36C, C37U
Turning to B3, the dissociation constant Kd is 175 nM.

B4: Ic_S2_P5E.1_K5.1_C5.1_H5.1_A5.1_[A7G]_F5.1_[T8C]_[T9C]_T5.1 (ssRNA)
RNA: B1 RNA with C32U, A33U, A34G, U35C, U36C, C37A
B4: the affinity, expressed as Kd, was 497 nM.

B5: Ic_S2_P5E.1_K5.1_C5.1_H5.1_A5.1_[T6C]_[A7T]_F5.1_[T8A]_[A10C]_T5.1 (ssRNA)
RNA: B1 RNA with C32U, A33C, A34U, U35A
In the case of B5, the Kd turned out to be 12.7 nM. This Kd is about 39-fold lower than that of the molecule before.

B6: Ic_S2_P5E.1_K5.1_C5.1_H5.1_A5.1_[A7T]_F5.1_[T8C]_[T9G]_[A10T]_T5.1 (ssRNA)
RNA: B1 RNA with C32U, A33U, A34U, U35C, U36G, C37U
Molecule B6 registered a dissociation constant Kd of 86.5 nM. Compared with the last molecule, the Kd is about 6.8-fold higher.

B7: Ic_S2_P5E.1_K5.1_C5.1_H5.1_A5.1_[T5C]_[A7T]_F5.1_[T8C]_[T9A]_[A10T]_T5.1 (ssRNA)
RNA: B1 RNA with A33U, A34U, U35C, U36A, C37U
B7 came in with a Kd of 80.5 nM.

B8: Ic_S2_P5E.1_K5.1_C5.1_H5.1_A5.1_[A7T]_F5.1_[T9C]_[A10G]_T5.1 (ssRNA)
RNA: B1 RNA with C32U, A33U, A34U, U36C, C37G
For the molecule B8, the dissociation constant Kd turned out to be 42.9 nM.

B9: Ic_S2_P5E.1_K5.1_C5.1_H5.1_A5.1_[T6A]_[A7C]_F5.1_[T9A]_[A10C]_T5.1 (ssRNA)
RNA: B1 RNA with C32U, A34C, U36A
B9: binding was characterised by a dissociation constant (Kd) of 1.15 nM.

B10: Ic_S2_P5E.1_K5.1_C5.1_H5.1_A5.1_[T6A]_[A7C]_F5.1_[T8C]_[T9A]_[A10T]_T5.1 (ssRNA)
RNA: B1 RNA with C32U, A34C, U35C, U36A, C37U
For the molecule B10, the Kd came to 13.7 nM.

B11: Ic_S2_P5E.1_K5.1_C5.1_H5.1_A5.1_[T5C]_[T6C]_F5.1_[T9A]_[A10C]_T5.1 (ssRNA)
RNA: B1 RNA with A33C, U36A
The molecule B11 gave a Kd of 1.13 nM.

B12: Ic_S2_P5E.1_K5.1_C5.1_H5.1_A5.1_[T5C]_[T6C]_F5.1_[A10T]_T5.1 (ssRNA)
RNA: B1 RNA with A33C, C37U
In turn, B12 came in with a Kd of 2.17 nM.

B13: Ic_S2_P5E.1_K5.1_C5.1_H5.1_A5.1_[A7T]_F5.1_[T8A]_[A10G]_T5.1 (ssRNA)
RNA: B1 RNA with C32U, A33U, A34U, U35A, C37G
The molecule B13 displayed a Kd of 15.8 nM.

B14: Ic_S2_P5E.1_K5.1_C5.1_H5.1_A5.1_[T5G]_[A7C]_F5.1_[T9G]_[A10T]_T5.1 (ssRNA)
RNA: B1 RNA with C32G, A33U, A34C, U36G, C37U
B14 returned a Kd of 60.9 nM.

B15: Ic_S2_P5E.1_K5.1_C5.1_H5.1_A5.1_[T5A]_[T6C]_[A7T]_F5.1_[T8G]_[T9C]_[A10T]_T5.1 (ssRNA)
RNA: B1 RNA with C32A, A33C, A34U, U35G, U36C, C37U
B15 came in with a Kd of 189 nM.

B16: Ic_S2_P5E.1_K5.1_C5.1_H5.1_A5.1_[T5A]_[T6C]_[A7C]_F5.1_[T8C]_[T9A]_[A10T]_T5.1 (ssRNA)
RNA: B1 RNA with C32A, A33C, A34C, U35C, U36A, C37U
B16 showed a Kd of 591 nM.

B17: Ic_S2_P5E.1_K5.1_C5.1_H5.1_A5.1_[T5G]_[T6C]_F5.1_[T8G]_[T9C]_[A10T]_T5.1 (ssRNA)
RNA: B1 RNA with C32G, A33C, U35G, U36C, C37U
With B17, the equilibrium dissociation constant (Kd) is 905 nM.

B18: Ic_S2_P5E.1_K5.1_C5.1_H5.1_A5.1_[T5C]_[T6A]_[A7C]_F5.1_[T8A]_[T9A]_T5.1 (ssRNA)
RNA: B1 RNA with A34C, U35A, U36A, C37A
In turn, B18 registered an equilibrium dissociation constant (Kd) of 10.8 nM.

B19: Ic_S2_P5E.1_K5.1_C5.1_H5.1_A5.1_[T5C]_[T6C]_[A7T]_F5.1_[T9G]_[A10G]_T5.1 (ssRNA)
RNA: B1 RNA with A33C, A34U, U36G, C37G
The molecule B19 had a Kd of 210 nM.

B20: Ic_S2_P5E.1_K5.1_C5.1_H5.1_A5.1_[T6C]_[A7G]_F5.1_[T8C]_[T9C]_[A10G]_T5.1 (ssRNA)
RNA: B1 RNA with C32U, A33C, A34G, U35C, U36C, C37G
In the case of B20, the dissociation constant Kd was found to be 1530 nM.

B21: Ic_S2_P5E.1_K5.1_C5.1_H5.1_A5.1_[T5C]_[T6C]_F5.1_[T8G]_[T9C]_[A10T]_T5.1 (ssRNA)
RNA: B1 RNA with A33C, U35G, U36C, C37U
With B21, the Kd stood at 496 nM. This Kd is about 3.1-fold lower than that of the molecule before.

B22: Ic_S2_P5E.1_K5.1_C5.1_H5.1_A5.1_[T5C]_[T6A]_[A7C]_F5.1_[T8C]_[T9A]_[A10T]_T5.1 (ssRNA)
RNA: B1 RNA with A34C, U35C, U36A, C37U
B22: binding was put at a Kd of 14.9 nM.

B23: Ic_S2_P5E.1_K5.1_C5.1_H5.1_A5.1_[T6A]_[A7C]_F5.1_[T8G]_[T9G]_[A10T]_T5.1 (ssRNA)
RNA: B1 RNA with C32U, A34C, U35G, U36G, C37U
In turn, B23 returned a Kd of 571 nM. This Kd lies about 38-fold higher than the previous one.

B24: Ic_S2_P5E.1_K5.1_C5.1_H5.1_A5.1_[T5C]_F5.1_[T9A]_[A10T]_T5.1 (ssRNA)
RNA: B1 RNA with A33U, U36A, C37U
As to B24, binding was put at a Kd of 0.408 nM.

B25: Ic_S2_P5E.1_K5.1_C5.1_H5.1_A5.1_[T6C]_[A7T]_F5.1_[T8A]_[T9G]_[A10C]_T5.1 (ssRNA)
RNA: B1 RNA with C32U, A33C, A34U, U35A, U36G
Turning to B25, binding was put at a Kd of 23.8 nM.

B26: Ic_S2_P5E.1_K5.1_C5.1_H5.1_A5.1_[T6G]_[A7C]_F5.1_[T8C]_[T9G]_[A10G]_T5.1 (ssRNA)
RNA: B1 RNA with C32U, A33G, A34C, U35C, U36G, C37G
Molecule B26 showed a dissociation constant Kd of 1340 nM.

B27: Ic_S2_P5E.1_K5.1_C5.1_H5.1_A5.1_[T5A]_[T6C]_[A7C]_F5.1_[T9A]_[A10G]_T5.1 (ssRNA)
RNA: B1 RNA with C32A, A33C, A34C, U36A, C37G
B27 had a Kd of 28.5 nM.
